As a reminder, the Tm is the temperature at the midpoint of the melting transition.

Data on one protein can be found in FireProtDB (doi:10.1007/s11095-019-2705-5).

For this series the following is noted: Homo sapiens, Thermal, fluorescence, whole UniProt chain shown.

B1: Bone morphogenetic protein 2 wild type, P12643 (protein)
chain: MVAGTRCLLALLLPQVLLGGAAGLVPELGRRKFAAASSGRPSSQPSDEVLSEFELRLLSMFGLKQRPTPSRDAVVPPYMLDLYRRHSGQPGSPAPDHRLERAASRANTVRSFHHEESLEELPETSGKTTRRFFFNLSSIPTEEFITSAELQVFREQMQDALGNNSSFHHRINIYEIIKPATANSKFPVTRLLDTRLVNQNASRWESFDVTPAVMRWTAQGHANHGFVVEVAHLEEKQGVSKRHVRISRSLHQDEHSWSQIRPLLVTFGHDGKGHPLHKREKRQAKHKQRKRLKSSCKRHPLYVDFSDVGWNDWIVAPPGYHAFYCHGECPFPLADHLNSTNHAIVQTLVNSVNSKIPKACCVPTELSAISMLYLDENEKVVLKNYQDMVVEGCGCR
Turning to B1, the melting temperature (Tm) (pH 2, Citrate) came out at 33 °C; the melting temperature (Tm) (pH 3, Citrate) worked out at 41 °C; the Tm (pH 4.5, Acetate) turned out to be 53 °C; the midpoint of thermal melting (Tm) (pH 4.5, Malonate) amounted to 63 °C; the midpoint of thermal melting (Tm) (pH 5, Acetate) stood at 55 °C; the melting temperature (Tm) (pH 6, MES) was found to be 62 °C. For the same protein, the Tm (pH 7, MOPS) stood at 63 °C; the Tm (pH 8.5, Tris) stood at 61 °C; the midpoint of thermal melting (Tm) (pH 10, phosphate) worked out at 59 °C; the Tm (pH 10.5, CAPS) was 52 °C; the midpoint of thermal melting (Tm) (pH 11, CAPS) is 32 °C.
